Test results: the DeepSol protein solubility set

Assay: soluble on expression in E. coli; label from the status in PepcDB or PDB records

Sequence | soluble on expression in E. coli
MAHHHHHHMSKKERYKIWKRIPKCELHCHLDLCFSADFFVSCIRKYNLQPNLSDEEVLDYYLFAKGGKSLGEFVEKAIKVADIFHDYEVIEDLAKHAVFNKYKEGVVLMEFRYSPTFVAFKYNLDIELIHQAIVKGIKEVVELLDHKIHVALMCIGDTGHEAANIKASADFCLKHKADFVGFDHGGHEVDLKEYKEIFDYVRESGVPLSVHAGEDVTLPNLNTLYSAIQVLKVERIGHGIRVAESQELIDMVKEKNILLEVCPISNVLLKNAKSMDTHPIRQLYDAGVKVSVNSDDPGMFLTNINDDYEELYTHLNFTLEDFMKMNEWALEKSFMDSNIKDKIKNLYF | not soluble
SLKIKQIVKPGLAVLAAGVLSACATKSNVKADGTTDNPVFPKPYSVTLDNNRGTFPTYDELDLMRPGLTKDDIYKILGRPHYDEGMYGVREWDYLFHFHTPGVGIDPENTSGVEGITTCQYKIIFDKDKFARSFYWNPVFPKDAACPPPAPKAEPQVIIREIVPAKPKRIRQ | soluble
MGSDKIHHHHHHMETRKLAVFVDLATTQNYSRSAERMFLSQSTISKYIMALERDWQVQLFERAHRQVTLTRIGQQLLPRAQAILREERQLQQVLAANTAHNAQSLVVQGLPSLAQYQAFHIITAFTKRYPEVKLQFSEASVDRLAHALDHTNVDIVFTRIFGDQPNNYDVLLNETDQFVVLVPKDDPLAQQAEISLSMLAHESILLLKDTIGEDNPLFSAFQKMHTPQMVYDGQRIDLILEMLNQGDGVSVVMARSFDLTGFDNIKAIPLTPTIRSQMAFMKRPDNHAAVVAKFWAFATKYSQSLSD | not soluble
MGSKISIINHINTIRYYLKKNEVEDKVEDPAGAAEPESTEAFGTFISPSTGMEFIMAPAGEFLMGSSPEEKGRSYSESPVHRVTIKNPFYIGKYQVTQKQWKTIMGTSPSNFNEDFRPVELVSWEDVQEFIGKLNAMENTTKYRLPSEAEWEYACRAGKQSRYFFGEDESKLGDYAWYARNAGRKTHPAGRKKPNRWGLYDMCGNVWEWVQDSWHEDYNGAPSDGSAWEDGNSSNRVSRGGSWYCSTNSCRSASRFSREPEKHLANLGFRLVKELLEHHHHHH | not soluble
MNKKQRDEISKLLSYVLRHAPESMGLTLDRDGWCEVDELVGKANANGHSFDRQALEEVVETNEKKRFTLSEDGQRIRAAQGHSTEQVQVQHIEKEPPAWLYHGTASRFMASIETQGLIAGSRHHVHLTEDPETALSVGKRYGQPVLLAVDAKGMFEAGVQFFQADNGVWLVEAVPIEWLTKVADTVSLEHHHHHH | soluble
MMKRNLIGAFIAASTLLSSSVAFSQDKPAYETGMIPADHIMVPDGDIQASIFLISDANGWTEADETRAKALVEKGAAVVGIDFKEYLKALEADDDECIYMISDIESLSQQIQRTAGTGSYRLPIVTGIGKGGTLALAMIAQSPVSTVREAVAVDPKAGLPLEKILCTPATKDKVDGETVYGLTDGALPAPVSVIFTPDADQKGRDHVNALVKLHSDIEVTDVTDKADEVLTQTLSDKVDAAGDSGNPLGLPITVLEAKPVMDTMAVIYSGDGGWRDLDEEVGSALQKQGVPVIGVDALRYFWKEKDPKEVAGDLARIIDTYRKEWKVKNVVLIGYSFGADIIPATYNLLPDRVKSSVAQLSLLGLSNEVDFEISVQGWLGVAGEGKGGKTVDDIAKIDPKLVQCVYGTEEEDEDPCPGLKAKGVETIGIEGGHHFDEDYEALAKRIVTSLKTRLAKLEHHHHHH | soluble
GPLGSGGGTIAMLNEISSDTLEQLYSLAFNQYQSGKYEDAHKVFQALCVLDHYDSRFFLGLGACRQAMGQYDLAIHSYEEGAVMDIKEPRFPFHAAECLLQKGELAEAESGLFLAQELIANKPEFKELSTRVSSMLEAIKLKKEMKHE | soluble
MAETDPKSVQDLTAVVQTLLQQMQDKFQTMSDQIIGRIDEMSTRIDDLEKNIADLMTQAGVEEIEGENKVKEGDAS | soluble
MKHYTVAINGLPQEFEGFTILHLTDLHAKKYGDQQDKLIRLINRQNFDMVAMTGDFIDKDNPDLEPTLELIQGLAAKPIFFVPGNHEWRYDFSIKSSLEEHGVKILDNKNAELARGDARLWIAGVDDPYLHRDKLEEALHGIADAQPKLLLAHAPNIFKPAAESGVELVLVGHTHGGQVRLPLIGAIVAPGQGLFPQYDYGHFTAGSTNMIVNGGLGESTLPLRFCSRPEIVLVKLVSAPLEHHHHHH | not soluble
MSDYCSNDASPFGDYDLPSDEPSPKYQKLNKNIFSPLSPTFELKFQSKLRVSGNSTSSTTSDDSDDESLHRSNQLKHLETLFKESILRTSFSRPGVSNTSCDEKLDLVSEDEKKRLRNTEAARRCREKIKRKTDDLETELTRLTARNEVMNQHRIRLLSQVEEQMRMLENIKSRNPELEAEIRYEAKKIVDTYTHQVETKRKAIQDYFDMTCNKLY | not soluble
MGSDKIHHHHHHMTSQDTADTGMADMDMTDTGMFLAKADIFASLTPEEDRAWSQLCTVESVSGGTIVLDYGIRPEIVLVVLSGALRATLRVSAGKELFLDMIGPGGTMAEMDAIRAEGYNLCLMATTDATLVRMPVDVFNDIIAQKHTVCLSLLSVLVQRMHVLHARICEFSYLDVRHRLYTTLLRLSKPSEDKPQQRTISPVIIHAALAEHVGARRETVSREMSRLVQDGVIERNRNAIVIRQPHELLRRLSQFDFA | not soluble
MFNRGNTRVDVSSEPGTSGRYPERMIDQLPANYPCAKLKLDQFFLQWLSEHQDLVSTLVEDIQAGRPIHAPTAPVGPSPLSPSTAHMIFASTPPISPSKTRSPGTPLSPARRSTTTLGGSQKRGPLVSIPQFYFPTQSSNAGQGSDPATRDFLQRAEAAYKTDGGAAGLGQKAFVKMMQEVCELPSMVAYSLFKRLTGCEAGEEEGAAVPRDTFIKFWTGRGLVTAPPPKRAFDSLRPDGQDYLTFADFWPMMECVLRYHPGLEFLAETQEFQRKYAETVIHRIFYSLNKCGSGRLTFREFRSGELMDALYALDRENDINKILKFFSYEHFYVIYCKFWELDQDHDFQLDKTDLAHYSNCALSYVIVDRIFEEAPRKFKAGTPPGKMCYEDFVWFILSEEDKTTDTALTYWFRCVDLDGDGVIRPREMLYFYEEQLRRLEGWNQEPVQFEDLLCQLHDMLSPAKEGAFTLRDLKRTKPQSGLFFSSLFSLHKFVGFENRDPFAQRAEAAEFTGLSDWDKFAKIEYFRLASEDDQQDTAGGAMDTDEQI | not soluble
MVPESHPRYKSLLNRDRIVEAFESGVLAKGGMIAHGRGETFDYLIGESTTDAALNSIKVSAALLVLAENPVISVNGNSVALAKDEFVELAKELNGKIEVNLFYRTTEREEKIKDVFESDINGGIVLLGIDNADKQIPGIDHLRGKVSESGIYTSDVVLVPLEDGDRAEALVKMGKTVIAIDLNPLSRTARKSTISIIDELTRCIPLITEYVREYKKMDRAELLKIVENYDNEENLRNILNLISKRLTSVDLEHHHHHH | soluble
MSLTSTIIDVRAKLYTWKGDVQKIHENFCTNAADLVNQDNISNDRWATYKFLSWLVVEVETSDGHIGIGNAALSPKPCKSVVDNYLKPAIIGESIWDYEHIWQKMYRQTLAWGRKGIGMTAISAVDIAIWDALGKTVKQPVFKLLGGKTKSKLPCYASKLYSQPLDSLAKEAKDYLDQGFKAMKLRLGWGPNDGAEGMRKNIELIRTVRSVVGEDVDLMADVYMGWTFEYAKRMMRLIDNENLRWLEEPVIADDIDGYADLKASCQTPISGGEHEYTLFGFRQLLEKKAVDVVQFDTNRVGGITQAHKICALAEAFQIPVIPHAGQVHNFHISMSSINAPIVEYFPFWPVEIGNELFWYIFDGEPQAKDGYIELDDTKPGLGIELSEKYLKDFVIEVEGHHHHHH | soluble
MKYNREKLKNKVCLAIIGMPHGIKGDVLLKILSSEPQRLKTYGTLYDDRGHSYEIVMLRMQKKNAIVHFKGVEDRSAAEALRGIHLYVARDQLVDDLTEDEFYQVDLIGLRVQDCTGRILGEVSGLFNFGAGDLLEMRLNTGKTVLIPFSKAAVLEVCIASGFLVVDPVAAGLSDGGENTLEHHHHHH | soluble
